Test results from patent US20260242478A1 (published 2026).
Where no end group is shown, it is not given here.

What was measured:
[1] = target: T1, PSMA Fab (006 PSMA Fab); assay: phage binding ELISA; PSMA Fab wells pre-incubated with PSMA antigen as competitor, anti-M13 HRP detection
T1 construct: also called Anti-PSMA Fab
Description: (§1) Clonal phage were harvested as crude supernatants and screened via standard ELISAs. […] Prior to the addition of clonal phage. wells were incubated with blocking buffer and PSMA antigen or blocking buffer alone. Without washing or aspirating, clonal phage supernatants were then added to the wells and incubated for a short time. Wells were then washed followed by detection of bound phage using a horse radish conjugated anti-M13 antibody.

[2] = target: T1, PSMA Fab (006 PSMA Fab); assay: phage binding ELISA; biotinylated PSMA Fab on neutravidin plate, clonal phage supernatant, anti-M13 HRP detection;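 further: wells were preincubated with blocking buffer either containing PSMA antigen or without it before crude phage supernatant was added, briefly incubated, then washed prior to detection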
Description: as §1

[3] = target: T2, PSMA Fab (006 PSMA Fab); assay: clonal phage ELISA on biotinylated PSMA Fab captured on neutravidin, anti-M13-HRP detection;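 further: crude clonal phage supernatants added to wells preincubated with PSMA antigen in blocking buffer or with blocking buffer alone, brief binding period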
T2 construct: also called Anti-PSMA Fab; anti-PSMA Fab
Description: as §1

[4] = target: T2, PSMA Fab (006 PSMA Fab); assay: clonal phage ELISA on captured PSMA Fab, wells pre-incubated with PSMA antigen as competitor
Description: as §1

[5] = target: T3, PSMA Fab; assay: clonal phage ELISA on captured PSMA Fab pre-incubated with PSMA antigen as competitor;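 further: crude clonal phage supernatants added to wells without washing away the PSMA competitor, bound phage detected by HRP-conjugated anti-M13 antibody, reference wells received blocking buffer only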
T3 construct: also called Anti-PSMA Fab; 006 PSMA Fab
Description: as §1

[6] = target: T3, PSMA Fab; assay: clonal phage ELISA on biotinylated PSMA Fab captured on neutravidin, anti-M13 HRP detection;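 further: crude clonal phage supernatants added to wells pretreated with PSMA antigen in blocking buffer or with blocking buffer only, then briefly incubated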
Description: as §1

IQILCTPTWMCVGF [Phage-3182]
Phage binding ELISA signal, Anti-PSMA Fab with PSMA antigen [1]: 0.0781
Phage binding ELISA signal, Anti-PSMA Fab [2]: 2.01

B1: Phage-3190 (peptide, not shown: large carriers)
peptide: ADLRCVPEWMCMGI
notes: Clonal phage of the Peptide-180 library, tested as crude supernatant
Phage binding ELISA signal, Anti-PSMA Fab [3]: 2
Phage binding ELISA signal, Anti-PSMA Fab in presence of PSMA antigen [4]: 0.0654

B2: Phage-3171 (peptide)
peptide: GEVFCIPAWMCAGF
modifications: cysteine pairing not given here; also: fused to phage pIII, fusion site not given here
Phage binding ELISA signal, Anti-PSMA Fab with PSMA antigen [1]: 0.107
Phage binding ELISA signal, Anti-PSMA Fab [2]: 2.02

B3: Phage-3186 (peptide, not shown: large carriers)
peptide: VSELCRPAWMCHGF
notes: as for B1
Phage binding ELISA signal, Anti-PSMA Fab [3]: 2
Phage binding ELISA signal, Anti-PSMA Fab in presence of PSMA antigen [4]: 0.082

VTRMCVPEWMCSGI [Phage-3176]
Phage binding ELISA signal, Anti-PSMA Fab with PSMA antigen [1]: 0.0628
Phage binding ELISA signal, Anti-PSMA Fab [2]: 2.02

EGAICKPEWMCKGF [Phage-3183]
Phage binding ELISA signal, Anti-PSMA Fab with PSMA antigen [1]: 0.0737
Phage binding ELISA signal, Anti-PSMA Fab [2]: 2.01

ANLLCIPNWMCSGF [Phage-3172]
Phage binding ELISA signal, Anti-PSMA Fab with PSMA antigen [1]: 0.0969
Phage binding ELISA signal, Anti-PSMA Fab [2]: 2.02

YEPVCRPAWMCIGF [Phage-3177]
Phage binding ELISA signal, Anti-PSMA Fab with PSMA antigen [1]: 0.0622
Phage binding ELISA signal, Anti-PSMA Fab [2]: 2.02

B4: Phage-3169 (peptide)
peptide: VEKLCKPEWMCMGF
modifications: cysteine pairing not given here; also: fused to phage pIII, fusion site not given here
Phage binding ELISA signal, Anti-PSMA Fab in presence of PSMA [5]: 0.0909
Phage binding ELISA signal, Anti-PSMA Fab [6]: 2.02

B5: Phage-3195 (peptide, not shown: large carriers)
peptide: HEHFCRPLWMCTGL
notes: as for B1
Phage binding ELISA signal, Anti-PSMA Fab [3]: 1.99
Phage binding ELISA signal, Anti-PSMA Fab in presence of PSMA antigen [4]: 0.0753

B6: Phage-3191 (peptide, not shown: large carriers)
peptide: QHWQCVPRWMCDGF
notes: as for B1
Phage binding ELISA signal, Anti-PSMA Fab [3]: 2
Phage binding ELISA signal, Anti-PSMA Fab in presence of PSMA antigen [4]: 0.103

B7: Phage-3193 (peptide, not shown: large carriers)
peptide: GEAVCIPRWMCDGF
notes: as for B1
Phage binding ELISA signal, Anti-PSMA Fab [3]: 1.99
Phage binding ELISA signal, Anti-PSMA Fab in presence of PSMA antigen [4]: 0.0937

B8: Phage-3167 (peptide)
peptide: TYPKCIPPWMCTGF
modifications: cysteine pairing not given here; also: fused to phage pIII, fusion site not given here
Phage binding ELISA signal, Anti-PSMA Fab in presence of PSMA [5]: 0.115
Phage binding ELISA signal, Anti-PSMA Fab [6]: 2.03

MVRLCEPEWMCTGF [Phage-3184]
Phage binding ELISA signal, Anti-PSMA Fab with PSMA antigen [1]: 0.116
Phage binding ELISA signal, Anti-PSMA Fab [2]: 2.01

B9: Phage-3197 (peptide, not shown: large carriers)
peptide: LSPMCVPQWMCSGF
notes: as for B1
Phage binding ELISA signal, Anti-PSMA Fab [3]: 1.99
Phage binding ELISA signal, Anti-PSMA Fab in presence of PSMA antigen [4]: 0.119

YEQACQPPWMCLGF [Phage-3178]
Phage binding ELISA signal, Anti-PSMA Fab with PSMA antigen [1]: 0.0671
Phage binding ELISA signal, Anti-PSMA Fab [2]: 2.02

B10: Phage-3185 (peptide, not shown: large carriers)
peptide: IEKWCFPMWMCEGF
modifications: cysteine pairing not given here; also: fused to phage pIII, junction sequence not given here
notes: as for B1
Phage binding ELISA signal, Anti-PSMA Fab [3]: 2.01
Phage binding ELISA signal, Anti-PSMA Fab in presence of PSMA antigen [4]: 0.0806

B11: Phage-3170 (peptide)
peptide: EVKFCKPAWMCTGF
modifications: cysteine pairing not given here; also: fused to phage pIII, fusion site not given here
Phage binding ELISA signal, Anti-PSMA Fab in presence of PSMA [5]: 0.0863
Phage binding ELISA signal, Anti-PSMA Fab [6]: 2.02

B12: Phage-3188 (peptide, not shown: large carriers)
peptide: DMRVCKPEWMCTGL
notes: as for B1
Phage binding ELISA signal, Anti-PSMA Fab [3]: 2
Phage binding ELISA signal, Anti-PSMA Fab in presence of PSMA antigen [4]: 0.109

B13: Phage-3198 (peptide, not shown: large carriers)
peptide: FDRVCKPEWMCNGL
notes: as for B1
Phage binding ELISA signal, Anti-PSMA Fab [3]: 1.99
Phage binding ELISA signal, Anti-PSMA Fab in presence of PSMA antigen [4]: 0.0655

B14: Phage-3168 (peptide)
peptide: ADWLCRPAWMCEGL
modifications: cysteine pairing not given here; also: fused to phage pIII, fusion site not given here
Phage binding ELISA signal, Anti-PSMA Fab in presence of PSMA [5]: 0.0589
Phage binding ELISA signal, Anti-PSMA Fab [6]: 2.02

B15: Phage-3192 (peptide, not shown: large carriers)
peptide: EVVMCRPLWMCSGF
notes: as for B1
Phage binding ELISA signal, Anti-PSMA Fab [3]: 2
Phage binding ELISA signal, Anti-PSMA Fab in presence of PSMA antigen [4]: 0.0925

B16: Phage-3189 (peptide, not shown: large carriers)
peptide: LEALCVPRWMCEGF
notes: as for B1
Phage binding ELISA signal, Anti-PSMA Fab [3]: 2
Phage binding ELISA signal, Anti-PSMA Fab in presence of PSMA antigen [4]: 0.096

VTAKCVPEWMCTGF [Phage-3174]
Phage binding ELISA signal, Anti-PSMA Fab with PSMA antigen [1]: 0.0968
Phage binding ELISA signal, Anti-PSMA Fab [2]: 2.02

YPSMCKPLWMCQGF [Phage-3175]
Phage binding ELISA signal, Anti-PSMA Fab with PSMA antigen [1]: 0.111
Phage binding ELISA signal, Anti-PSMA Fab [2]: 2.02

B17: Phage-3196 (peptide, not shown: large carriers)
peptide: VEVRCVPAWMCTGF
notes: as for B1
Phage binding ELISA signal, Anti-PSMA Fab [3]: 1.99
Phage binding ELISA signal, Anti-PSMA Fab in presence of PSMA antigen [4]: 0.0941

B18: Phage-3194 (peptide, not shown: large carriers)
peptide: DMPLCIPAWMCAGF
modifications: cysteine pairing not given here; also: fused to phage pIII, junction sequence not given here
notes: as for B1
Phage binding ELISA signal, Anti-PSMA Fab [3]: 1.99
Phage binding ELISA signal, Anti-PSMA Fab in presence of PSMA antigen [4]: 0.0615

HERECIPRWMCTGF [Phage-3180]
Phage binding ELISA signal, Anti-PSMA Fab with PSMA antigen [1]: 0.065
Phage binding ELISA signal, Anti-PSMA Fab [2]: 2.01

MDRMCVPEWMCYVF [Phage-3173]
Phage binding ELISA signal, Anti-PSMA Fab with PSMA antigen [1]: 0.0741
Phage binding ELISA signal, Anti-PSMA Fab [2]: 2.02

B19: Phage-3187 (peptide, not shown: large carriers)
peptide: AAPMCIPAWMCHGF
notes: as for B1
Phage binding ELISA signal, Anti-PSMA Fab [3]: 2
Phage binding ELISA signal, Anti-PSMA Fab in presence of PSMA antigen [4]: 0.137

YMMICRPAWMCSGL [Phage-3179]
Phage binding ELISA signal, Anti-PSMA Fab with PSMA antigen [1]: 0.116
Phage binding ELISA signal, Anti-PSMA Fab [2]: 2.01

GVSMCIPAWMCQGF [Phage-3181]
Phage binding ELISA signal, Anti-PSMA Fab with PSMA antigen [1]: 0.0737
Phage binding ELISA signal, Anti-PSMA Fab [2]: 2.01
